# Experimental data as given in PMC9076861.
# Biological target: human insulin receptor overexpressed on Rat-1 cells (Rat-1/hIR) (human) (UniProt P06213)
substance,measurement,value
insulin from bovine pancreas (ligand),"EC50 of IR Y1150 phosphorylation in Rat-1/hIR cells, various concentrations of insulin for 5 min, western blot, four-parameter logistic fit",86.4 nM
